Data from patent publication US20190284293A1, “COMBINATION THERAPY WITH ANTI-CD73 ANTIBODIES” (BRISTOL-MYERS SQUIBB COMPANY, priority 2016, published 2019).

T1: CD32b (FcgRIIb) (Homo sapiens, UniProt P31994)
T1 sequence (P31994 43-310): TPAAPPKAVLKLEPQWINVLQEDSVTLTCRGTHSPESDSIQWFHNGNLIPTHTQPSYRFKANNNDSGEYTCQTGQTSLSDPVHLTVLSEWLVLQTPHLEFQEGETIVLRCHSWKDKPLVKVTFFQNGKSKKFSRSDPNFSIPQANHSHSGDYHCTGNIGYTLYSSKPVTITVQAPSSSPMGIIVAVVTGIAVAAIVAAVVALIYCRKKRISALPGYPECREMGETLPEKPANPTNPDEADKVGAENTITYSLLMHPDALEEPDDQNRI

T2: CD32a-H131 (FcgRIIa-H131) (Homo sapiens, UniProt P12318)
T2 sequence (P12318 34-217 limits assumed): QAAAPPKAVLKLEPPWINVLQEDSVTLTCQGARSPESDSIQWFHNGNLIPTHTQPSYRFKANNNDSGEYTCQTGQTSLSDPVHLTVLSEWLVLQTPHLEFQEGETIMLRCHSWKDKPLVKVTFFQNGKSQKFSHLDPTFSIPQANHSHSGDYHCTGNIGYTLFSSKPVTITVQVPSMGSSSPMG

T3: CD32a-R131 (FcgRIIa-R131) (Homo sapiens, UniProt P12318, H167R)
T3 sequence (P12318 34-217 H167R limits assumed): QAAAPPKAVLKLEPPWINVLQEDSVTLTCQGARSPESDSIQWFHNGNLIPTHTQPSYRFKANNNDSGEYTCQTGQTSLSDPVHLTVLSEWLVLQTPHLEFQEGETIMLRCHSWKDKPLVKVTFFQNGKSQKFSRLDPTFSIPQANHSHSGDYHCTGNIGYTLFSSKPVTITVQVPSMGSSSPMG


Key:
Experiment in all cases: SPR, antibody binding to anti-his Fab captured FcgR-his (% Rmax)
Conditions in all cases: 1 μM antibody
CD32b (FcgRIIb) = biological target: T1, CD32b (FcgRIIb)
Description: (§1) The binding of antibodies to Fc gamma receptors (FcγRs or FcgRs) was studied using biosensor technologies including Biacore surface plasmon resonance (SPR) and Fortebio Biolayer Interferometry (BLI). SPR studies were performed on a Biacore T100 instrument (GE Healthcare) at 25° C. The Fab fragment from a murine anti-6×His antibody was immobilized on a CM5 sensor chip using EDC/NHS to a density of −3000 RU. Various his-tagged FcgRs (7 ug/ml) were captured via the C-terminal his-tag using a contact time of 30 s at 10 ul/min, and the binding of 1.0 μM antibody was evaluated in a running buffer of 10 mM NaPO4, 130 mM NaCl, 0.05% p20 (PBS-T) pH 7.1. FcgRs used for these experiments included CD64 (FcgRI), CD32a-H131 (FcgRIIa-H131), CD32a-R131 (FcgRIIa-R131), CD32b (FcgRIIb), CD16a-V158 (FcgRIIIa-V158), CD16b-NA1 (FcgRIIIb-NA1), and CD16B-NA2 (FcgRIIIb-NA2). BLI experiments were performed on a Fortebio Octet RED instrument (Pall, Fortebio) at 25° C. in 10 mM NaPO4, 130 mM NaCl, 0.05% p20 (PBS-T) pH 7.1. Antibodies were captured out of undiluted expression supernatants on protein A coated sensors, followed by the binding of 1 μM hCD32a-H131, hCD32a-R131, hCD32b, hCD16a-V158, or 0.1 μM hCD64 analytes.

[1] = biological target: T2, CD32a-H131 (FcgRIIa-H131)
Description: as §1

[2] = biological target: T3, CD32a-R131 (FcgRIIa-R131)
Description: as §1

CD64 (FcgRI) = CD64 (FcgRI) (Homo sapiens, UniProt P12314)
Sequence of CD64 (FcgRI) (P12314 16-374): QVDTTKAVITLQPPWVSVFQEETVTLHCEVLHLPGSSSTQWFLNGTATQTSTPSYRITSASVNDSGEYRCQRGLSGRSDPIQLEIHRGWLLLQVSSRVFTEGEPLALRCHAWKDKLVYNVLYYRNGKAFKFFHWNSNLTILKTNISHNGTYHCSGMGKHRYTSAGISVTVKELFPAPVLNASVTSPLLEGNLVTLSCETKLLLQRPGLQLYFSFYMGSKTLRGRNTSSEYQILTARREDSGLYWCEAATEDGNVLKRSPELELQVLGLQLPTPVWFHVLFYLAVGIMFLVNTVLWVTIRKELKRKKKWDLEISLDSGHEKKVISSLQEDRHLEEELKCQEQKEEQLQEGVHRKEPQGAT
Description: as §1

CD16B-NA2 (FcgRIIIb-NA2) = CD16B-NA2 (FcgRIIIb-NA2) (Homo sapiens, UniProt O75015)
Sequence of CD16B-NA2 (FcgRIIIb-NA2) (O75015 17-200 limits assumed): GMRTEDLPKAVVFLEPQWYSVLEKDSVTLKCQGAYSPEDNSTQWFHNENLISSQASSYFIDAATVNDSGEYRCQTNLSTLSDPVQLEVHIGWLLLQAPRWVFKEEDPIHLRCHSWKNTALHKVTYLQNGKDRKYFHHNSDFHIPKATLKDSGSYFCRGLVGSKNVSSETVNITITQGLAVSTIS
Description: as §1

[3] = biological target: CD16a-V158 (FcgRIIIa-V158) (Homo sapiens, UniProt P08637, F176V)
Sequence of CD16a-V158 (FcgRIIIa-V158) (P08637 17-208 F176V limits assumed): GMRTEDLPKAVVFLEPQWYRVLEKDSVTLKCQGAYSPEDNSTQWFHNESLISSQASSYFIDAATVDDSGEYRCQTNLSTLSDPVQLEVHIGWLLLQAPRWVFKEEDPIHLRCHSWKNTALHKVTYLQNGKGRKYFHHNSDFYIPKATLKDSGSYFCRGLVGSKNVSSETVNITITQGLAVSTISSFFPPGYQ
Description: as §1

Molecule	% Rmax hCD32b (CD32b (FcgRIIb))	% Rmax hCD32a-H131 [1]	% Rmax hCD32a-R131 [2]	% Rmax hCD64 (CD64 (FcgRI))	% Rmax hCD16B-NA2 (CD16B-NA2 (FcgRIIIb-NA2))	% Rmax hCD16a-V158 [3]
mAb8-IgG2.3G1-AY-V27 (protein, left off: another chain or arm of the molecule) constant: ASTKGPSVFPLAPCSRSTSESTAALGCLVKDYFPEPVTVSWNSGALTSGVHTFPAVLQSSGLYSLSSVVTVPSSNFGTQTYTCNVDHKPSNTKVDKTVERKSCVECPPCPAPELLGGPSVFLFPPKPKDTLMISRTPEVTCVVVDVEHEDPEVKFNWYVDGVEVHNAKTKPREEQYNSTYRVVSVLTVLHQDWLNGKEYKCKVSNKALPAPIEKTISKAKGQPREPQVYTLPPSREEMTKNQVSLTCLVKGFYPSDIAVEWESNGQPENNYKTTPPVLDSDGSFFLYSKLTVDKSRWQQGNVFSCSVMHEALHNHYTQKSLSLSPGK	67%	67%	80%	78%	7%	
mAb11-IgG2.3 (protein, left off: another chain or arm of the molecule) constant: ASTKGPSVFPLAPCSRSTSESTAALGCLVKDYFPEPVTVSWNSGALTSGVHTFPAVLQSSGLYSLSSVVTVPSSNFGTQTYTCNVDHKPSNTKVDKTVERKSCVECPPCPAPPVAGPSVFLFPPKPKDTLMISRTPEVTCVVVDVSHEDPEVQFNWYVDGVEVHNAKTKPREEQFNSTFRVVSVLTVVHQDWLNGKEYKCKVSNKGLPAPIEKTISKTKGQPREPQVYTLPPSREEMTKNQVSLTCLVKGFYPSDIAVEWESNGQPENNYKTTPPMLDSDGSFFLYSKLTVDKSRWQQGNVFSCSVMHEALHNHYTQKSLSLSPGK	5%	44%	17%	2%	0%	1%
mAb6-IgG2.3 (protein, left off: another chain or arm of the molecule) constant: ASTKGPSVFPLAPCSRSTSESTAALGCLVKDYFPEPVTVSWNSGALTSGVHTFPAVLQSSGLYSLSSVVTVPSSNFGTQTYTCNVDHKPSNTKVDKTVERKSCVECPPCPAPPVAGPSVFLFPPKPKDTLMISRTPEVTCVVVDVSHEDPEVQFNWYVDGVEVHNAKTKPREEQFNSTFRVVSVLTVVHQDWLNGKEYKCKVSNKGLPAPIEKTISKTKGQPREPQVYTLPPSREEMTKNQVSLTCLVKGFYPSDIAVEWESNGQPENNYKTTPPMLDSDGSFFLYSKLTVDKSRWQQGNVFSCSVMHEALHNHYTQKSLSLSPGK	3%	66%	14%	3%	0%	1%
mAb12-IgG2.5 (protein, left off: another chain or arm of the molecule) constant: ASTKGPSVFPLAPSSRSTSESTAALGCLVKDYFPEPVTVSWNSGALTSGVHTFPAVLQSSGLYSLSSVVTVPSSNFGTQTYTCNVDHKPSNTKVDKTVERKCCVECPPCPAPPVAGPSVFLFPPKPKDTLMISRTPEVTCVVVDVSHEDPEVQFNWYVDGVEVHNAKTKPREEQFNSTFRVVSVLTVVHQDWLNGKEYKCKVSNKGLPAPIEKTISKTKGQPREPQVYTLPPSREEMTKNQVSLTCLVKGFYPSDIAVEWESNGQPENNYKTTPPMLDSDGSFFLYSKLTVDKSRWQQGNVFSCSVMHEALHNHYTQKSLSLSPGK	1%		6%	1%	0%	1%

Results, then the molecule that gave them:

% Rmax hCD32b (CD32b (FcgRIIb))	% Rmax hCD32a-H131 [1]	% Rmax hCD32a-R131 [2]	% Rmax hCD64 (CD64 (FcgRI))	% Rmax hCD16B-NA2 (CD16B-NA2 (FcgRIIIb-NA2))	% Rmax hCD16a-V158 [3]	Molecule
40%		57%	69%	3%	12%	mAb10-IgG2.3G1-AY-V27 (protein, left off: another chain or arm of the molecule) constant: ASTKGPSVFPLAPCSRSTSESTAALGCLVKDYFPEPVTVSWNSGALTSGVHTFPAVLQSSGLYSLSSVVTVPSSNFGTQTYTCNVDHKPSNTKVDKTVERKSCVECPPCPAPELLGGPSVFLFPPKPKDTLMISRTPEVTCVVVDVEHEDPEVKFNWYVDGVEVHNAKTKPREEQYNSTYRVVSVLTVLHQDWLNGKEYKCKVSNKALPAPIEKTISKAKGQPREPQVYTLPPSREEMTKNQVSLTCLVKGFYPSDIAVEWESNGQPENNYKTTPPVLDSDGSFFLYSKLTVDKSRWQQGNVFSCSVMHEALHNHYTQKSLSLSPGK
1%	39%	7%	2%	0%	1%	mAb12-IgG2.3 (protein, left off: another chain or arm of the molecule) constant: ASTKGPSVFPLAPCSRSTSESTAALGCLVKDYFPEPVTVSWNSGALTSGVHTFPAVLQSSGLYSLSSVVTVPSSNFGTQTYTCNVDHKPSNTKVDKTVERKSCVECPPCPAPPVAGPSVFLFPPKPKDTLMISRTPEVTCVVVDVSHEDPEVQFNWYVDGVEVHNAKTKPREEQFNSTFRVVSVLTVVHQDWLNGKEYKCKVSNKGLPAPIEKTISKTKGQPREPQVYTLPPSREEMTKNQVSLTCLVKGFYPSDIAVEWESNGQPENNYKTTPPMLDSDGSFFLYSKLTVDKSRWQQGNVFSCSVMHEALHNHYTQKSLSLSPGK
1%		5%	1%	0%	1%	mAb10-IgG2.5 (protein, left off: another chain or arm of the molecule) constant: ASTKGPSVFPLAPSSRSTSESTAALGCLVKDYFPEPVTVSWNSGALTSGVHTFPAVLQSSGLYSLSSVVTVPSSNFGTQTYTCNVDHKPSNTKVDKTVERKCCVECPPCPAPPVAGPSVFLFPPKPKDTLMISRTPEVTCVVVDVSHEDPEVQFNWYVDGVEVHNAKTKPREEQFNSTFRVVSVLTVVHQDWLNGKEYKCKVSNKGLPAPIEKTISKTKGQPREPQVYTLPPSREEMTKNQVSLTCLVKGFYPSDIAVEWESNGQPENNYKTTPPMLDSDGSFFLYSKLTVDKSRWQQGNVFSCSVMHEALHNHYTQKSLSLSPGK
4%	100%	30%	6%	0%	3%	mAb5-IgG2.3 (protein, left off: another chain or arm of the molecule) constant: ASTKGPSVFPLAPCSRSTSESTAALGCLVKDYFPEPVTVSWNSGALTSGVHTFPAVLQSSGLYSLSSVVTVPSSNFGTQTYTCNVDHKPSNTKVDKTVERKSCVECPPCPAPPVAGPSVFLFPPKPKDTLMISRTPEVTCVVVDVSHEDPEVQFNWYVDGVEVHNAKTKPREEQFNSTFRVVSVLTVVHQDWLNGKEYKCKVSNKGLPAPIEKTISKTKGQPREPQVYTLPPSREEMTKNQVSLTCLVKGFYPSDIAVEWESNGQPENNYKTTPPMLDSDGSFFLYSKLTVDKSRWQQGNVFSCSVMHEALHNHYTQKSLSLSPGK
1%	39%	6%	1%	0%	1%	mAb4-IgG2.3 (protein, left off: another chain or arm of the molecule) constant: ASTKGPSVFPLAPCSRSTSESTAALGCLVKDYFPEPVTVSWNSGALTSGVHTFPAVLQSSGLYSLSSVVTVPSSNFGTQTYTCNVDHKPSNTKVDKTVERKSCVECPPCPAPPVAGPSVFLFPPKPKDTLMISRTPEVTCVVVDVSHEDPEVQFNWYVDGVEVHNAKTKPREEQFNSTFRVVSVLTVVHQDWLNGKEYKCKVSNKGLPAPIEKTISKTKGQPREPQVYTLPPSREEMTKNQVSLTCLVKGFYPSDIAVEWESNGQPENNYKTTPPMLDSDGSFFLYSKLTVDKSRWQQGNVFSCSVMHEALHNHYTQKSLSLSPGK
